Test results: patent US7749976B2, “Isolated PTPMT1 protein which mediates insulin production and uses thereof” (The Regents of the University of California, priority 2005, dated 2010)
Marks after values point to notes of the source that are not given here.

T1: PLIP (Mus musculus, UniProt Q66GT5)
T1 construct: ligating a PCR product encoding full-length PLIP; made in house; host or cells: Escherichia coli BL21 (DE3) CodonPlus RIL
T1 sequence (Q66GT5 32-193): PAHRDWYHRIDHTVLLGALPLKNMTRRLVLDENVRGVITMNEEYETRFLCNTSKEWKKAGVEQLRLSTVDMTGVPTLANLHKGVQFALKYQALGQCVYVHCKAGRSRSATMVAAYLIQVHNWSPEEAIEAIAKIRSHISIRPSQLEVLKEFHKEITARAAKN

T2: MTM1 (Homo sapiens, UniProt Q13496)
T2 sequence (Q13496 1-603): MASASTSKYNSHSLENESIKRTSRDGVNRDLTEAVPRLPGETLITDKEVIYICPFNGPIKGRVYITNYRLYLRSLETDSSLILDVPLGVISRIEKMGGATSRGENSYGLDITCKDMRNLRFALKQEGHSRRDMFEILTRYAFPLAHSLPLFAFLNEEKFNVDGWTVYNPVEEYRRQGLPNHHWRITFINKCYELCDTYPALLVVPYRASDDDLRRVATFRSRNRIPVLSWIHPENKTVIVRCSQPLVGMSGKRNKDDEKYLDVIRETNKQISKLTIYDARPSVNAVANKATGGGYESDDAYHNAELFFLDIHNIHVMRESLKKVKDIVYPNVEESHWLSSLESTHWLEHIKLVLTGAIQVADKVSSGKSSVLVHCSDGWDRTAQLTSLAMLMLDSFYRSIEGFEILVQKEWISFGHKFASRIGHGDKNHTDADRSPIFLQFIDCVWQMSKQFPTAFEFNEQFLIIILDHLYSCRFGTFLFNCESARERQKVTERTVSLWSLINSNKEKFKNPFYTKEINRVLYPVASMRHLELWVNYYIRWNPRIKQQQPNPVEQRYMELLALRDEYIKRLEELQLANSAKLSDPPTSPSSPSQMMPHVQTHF

T3: TC-PTP (Homo sapiens, UniProt P17706)
T3 sequence (P17706 1-415): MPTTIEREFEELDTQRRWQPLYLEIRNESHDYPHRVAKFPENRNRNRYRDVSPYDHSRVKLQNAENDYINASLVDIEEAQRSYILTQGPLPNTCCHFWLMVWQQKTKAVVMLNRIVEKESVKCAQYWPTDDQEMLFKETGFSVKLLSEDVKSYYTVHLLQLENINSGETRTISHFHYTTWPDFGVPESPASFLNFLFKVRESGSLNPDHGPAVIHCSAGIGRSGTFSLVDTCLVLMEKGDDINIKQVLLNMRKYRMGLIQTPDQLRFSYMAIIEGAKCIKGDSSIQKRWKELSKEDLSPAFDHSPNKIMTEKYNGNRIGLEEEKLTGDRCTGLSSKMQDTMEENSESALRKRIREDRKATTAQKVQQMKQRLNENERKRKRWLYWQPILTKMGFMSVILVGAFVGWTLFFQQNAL


Experiments:
PLIP = target: T1, PLIP; experiment: Phosphatase activity of various PTPs (malachite green / radiolabeled protein substrates); type: biochemical, murine; conditions: for Phosphatase activity, PLIP: mole of phosphate released/min/mol of enzyme, pH 5.5, triplicate, this study
Description: Recombinant murine PLIP was expressed as a fusion protein with N-terminal GST and 6-His tags in Escherichia coli BL21 (DE3) CodonPlus RIL cells (Stratagene). The expression construct was assembled by ligating a PCR product encoding full-length PLIP into the 5′-EcoR1 and 3′-Xho1 sites of a modified pET41 vector (pSJ6), kindly provided by Zhaohui Xu (University of Michigan). […] Cultures were then chilled on ice for 20 min, supplied with fresh antibiotics, induced with IPTG to a final concentration of 0.4 mM, and allowed to grow overnight @ 25° C., as previously described (Taylor and Dixon, 2003). All subsequent steps were performed @ 4° C. The cultures were pelleted by spinning @ 6000 rpm for 10 min in a Sorvall GSA rotor, resuspended in 30 ml of buffer (20 mM Imidazole, 50 mM Tris pH 7.4, 300 mM NaCl) with Complete protease inhibitors (Roche), and lysed via French Press. Insoluble material was removed by centrifugation @ 50,000 rpm for 30 min. The fusion protein was purified from the soluble supernatant first over Ni^2+ agarose beads, and then by successive separation on Superdex 75 and 200 gel filtration columns (Amersham). The resulting protein was concentrated, flash frozen in liquid nitrogen, and stored @−80° C. in 25% glycerol, 2 mM EDTA, and 2 mM DTT until use.
Di-C8 phosphoinosites (Echelon) and Dioleoyl-phosphatidylserine (Sigma) were dried together in a Speed Vac and resuspended via sonication in 18 μl assay buffer (100 mM sodium acetate, 50 mM bis-Tris, 50 mM Tris (pH 5.5), 10 mM DTT) to final concentrations of 50 μM and 500 μM, respectively. After prewarming at 37° C. for 5 min, reactions were initiated by the addition of 20 to 2000 ng of GST-PLIP diluted in assay buffer containing 1.0 mg/ml gelatin. Reactions were quenched after 5-30 min by the addition of 20 μl 0.1 M N-ethylmaleimide, and spun at 18,000×g for 10 min to sediment the lipid aggregates. […] Samples were allowed to sit for 40 minutes for color development before measuring absorbance at 620 nm. Inorganic phosphate release was quantitated by comparison to a standard curve of KH2PO4 in dH2O. […]

PTEN = PTEN (Homo sapiens, UniProt P60484); conditions: protein substrates; Ref. 43; cited from earlier work
MTM1 = target: T2, MTM1; conditions: Ref. 32; cited from earlier work
VHR = VHR (Homo sapiens, UniProt P51452); experiment: Phosphatase activity of various PTPs (malachite green / radiolabeled protein substrates); type: biochemical; conditions: mole of phosphate released/min/mol of enzyme; triplicate; this study
Description: (§1) Di-C8 phosphoinosites (Echelon) and Dioleoyl-phosphatidylserine (Sigma) were dried together in a Speed Vac and resuspended via sonication in 18 μl assay buffer (100 mM sodium acetate, 50 mM bis-Tris, 50 mM Tris (pH 5.5), 10 mM DTT) to final concentrations of 50 μM and 500 μM, respectively. After prewarming at 37° C. for 5 min, reactions were initiated by the addition of 20 to 2000 ng of GST-PLIP diluted in assay buffer containing 1.0 mg/ml gelatin. Reactions were quenched after 5-30 min by the addition of 20 μl 0.1 M N-ethylmaleimide, and spun at 18,000×g for 10 min to sediment the lipid aggregates. Twenty-five microliters of the supernatant was added to 50 μl of malachite green reagent and vortexed. Samples were allowed to sit for 40 minutes for color development before measuring absorbance at 620 nm. Inorganic phosphate release was quantitated by comparison to a standard curve of KH2PO4 in dH2O.
(§2) Assays using radiolabeled protein substrates or pNPP were carried in assay buffer containing 50 mM sodium acetate, 25 mM bis-Tris, 25 mM Tris, and 2 mM DTT at pH 5.5 (GST-PLIP), 6.0 (VHR), or 7.0 (TC-PTP), at 30° C. Radiolabeled proteins and pNPP were prepared and assayed as previously reported (Taylor et al., 1997).
(§3) Due to the only recent emergence of PI(5)P as a known signaling molecule, few PTP's have been tested for activity against this substrate. To ensure that activity against PI(5)P is not a common feature of PTP's, membrane-bound di-C8 PI(5)P was assayed using a known tyrosine-specific PTP (TC-PTP) and a known dual-specific PTP (VHR) (Ishibashi et al., 1992; Zhao et al., 1992; Ruzzene et al., 1993; Zhou et al., 1994; Denu et al., 1995).

TC-PTP = target: T3, TC-PTP; experiment: as above; type: biochemical; conditions: mole of phosphate released/min/mol of enzyme; triplicate; this study
Description: as §1, §2, §3

Chain of PTEN (P60484 whole entry, species assumed): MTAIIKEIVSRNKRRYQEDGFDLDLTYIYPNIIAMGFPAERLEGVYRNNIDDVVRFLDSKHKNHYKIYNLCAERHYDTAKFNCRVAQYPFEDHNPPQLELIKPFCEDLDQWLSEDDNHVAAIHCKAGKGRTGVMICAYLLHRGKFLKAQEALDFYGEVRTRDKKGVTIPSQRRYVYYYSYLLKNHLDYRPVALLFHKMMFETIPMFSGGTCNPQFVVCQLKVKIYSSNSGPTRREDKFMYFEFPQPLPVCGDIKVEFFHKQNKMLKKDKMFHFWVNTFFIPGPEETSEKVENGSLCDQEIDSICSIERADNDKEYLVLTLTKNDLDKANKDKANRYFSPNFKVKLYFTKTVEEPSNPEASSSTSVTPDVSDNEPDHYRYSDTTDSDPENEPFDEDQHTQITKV
Chain of VHR (P51452 whole entry, species assumed): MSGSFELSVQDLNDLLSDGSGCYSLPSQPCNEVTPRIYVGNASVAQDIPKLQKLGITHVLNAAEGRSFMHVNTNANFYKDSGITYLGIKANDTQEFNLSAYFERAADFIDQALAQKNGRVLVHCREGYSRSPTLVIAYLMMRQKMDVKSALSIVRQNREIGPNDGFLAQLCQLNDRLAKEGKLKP

Molecule | PLIP activity, fold lower than against PI(5)P (PLIP; radiolabeled protein substrates) | Phosphatase activity, PTEN (PTEN) | Phosphatase activity, MTM1 (MTM1) | Phosphatase activity, VHR (VHR) | Phosphatase activity, TC-PTP (TC-PTP) | Phosphatase activity, PLIP (PLIP)
myelin basic protein: radiolabeled myelin basic protein (protein, UniProt P02686 1-304, looked up, radiolabeled) Myelin basic protein: MGNHAGKRELNAEKASTNSETNRGESEKKRNLGELSRTTSEDNEVFGEADANQNNGTSSQDTAVTDSKRTADPKNAWQDAHPADPGSRPHLIRLFSRDAPGREDNTFKDRPSESDELQTIQEDSAATSESLDVMASQKRPSQRHGSKYLATASTMDHARHGFLPRHRDTGILDSIGRFFGGDRGAPKRGSGKDSHHPARTAHYGSLPQKSHGRTQDENPVVHFFKNIVTPRTPPPSQGKGRGLSLSRFSWGAEGQRPGFGYGGRASDYKSAHKGFKGVDAQGTLSKIFKLGGRDSRSGSPMARR | approximately 1000 fold | – | – | – | – | –
MyBP Tyr(P): radiolabeled myelin basic protein substrate, tyrosine phosphorylated (protein, UniProt P02686 1-304, looked up, radiolabeled, tyrosine-phosphorylated) Myelin basic protein: MGNHAGKRELNAEKASTNSETNRGESEKKRNLGELSRTTSEDNEVFGEADANQNNGTSSQDTAVTDSKRTADPKNAWQDAHPADPGSRPHLIRLFSRDAPGREDNTFKDRPSESDELQTIQEDSAATSESLDVMASQKRPSQRHGSKYLATASTMDHARHGFLPRHRDTGILDSIGRFFGGDRGAPKRGSGKDSHHPARTAHYGSLPQKSHGRTQDENPVVHFFKNIVTPRTPPPSQGKGRGLSLSRFSWGAEGQRPGFGYGGRASDYKSAHKGFKGVDAQGTLSKIFKLGGRDSRSGSPMARR | – | ~0.0^c mol/(min mol) | ~0.0^d mol/(min mol) | 0.5^b mol/(min mol) | 195^b mol/(min mol) | 0.1^b mol/(min mol)
MyBP Ser(P)/Tyr(P): radiolabeled myelin basic protein substrate (protein, UniProt P02686 1-304, looked up, radiolabeled, Ser/Tyr-phosphorylated, radiolabeled myelin basic protein substrate) Myelin basic protein: MGNHAGKRELNAEKASTNSETNRGESEKKRNLGELSRTTSEDNEVFGEADANQNNGTSSQDTAVTDSKRTADPKNAWQDAHPADPGSRPHLIRLFSRDAPGREDNTFKDRPSESDELQTIQEDSAATSESLDVMASQKRPSQRHGSKYLATASTMDHARHGFLPRHRDTGILDSIGRFFGGDRGAPKRGSGKDSHHPARTAHYGSLPQKSHGRTQDENPVVHFFKNIVTPRTPPPSQGKGRGLSLSRFSWGAEGQRPGFGYGGRASDYKSAHKGFKGVDAQGTLSKIFKLGGRDSRSGSPMARR | – | ~0.0^c mol/(min mol) | ~0.0^d mol/(min mol) | ~0.0^b mol/(min mol) | ~0.0^b mol/(min mol) | ~0.0^b mol/(min mol)
